The target in assay [1] is TAT-028 protein on the surface of human tumor cell lines (NCI-H460, HEK293, HepG2) (human) (UniProt P80723). The assay can be described thus: flow cytometry on NCI-H460 cells; secondary antibody only, background control.
Assay [2] has the same target. Kind of assay: flow cytometry on HEK293 cells; secondary antibody only, background control.
Assay [3] shares this target. Kind of assay: flow cytometry on HepG2 cells; secondary antibody only, background control. On the technique in general: Flow cytometry measures light scatter and fluorescence of single cells or particles in a stream.

Sequence of UniProt P80723 (P80723 2-227 limits assumed): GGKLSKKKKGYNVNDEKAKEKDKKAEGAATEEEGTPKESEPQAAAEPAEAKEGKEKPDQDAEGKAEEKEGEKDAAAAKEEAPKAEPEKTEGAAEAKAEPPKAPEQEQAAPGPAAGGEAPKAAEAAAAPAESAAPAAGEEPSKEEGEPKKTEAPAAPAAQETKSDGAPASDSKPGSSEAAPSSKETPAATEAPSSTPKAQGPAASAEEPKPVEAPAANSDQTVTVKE

As to PE-conjugated anti-mouse IgG (antibody), the geometric mean fluorescence (geometric mean fluorescence units) in assay [1] amounted to 37; in assay [2], 124; in assay [3] it was 178.

Source of the values: US20070192883A1.
